Experimental data as given in patent publication US20240376163A1 (published 2024).
No end group written: not given here. *: point of attachment. Biotin = O=C1N[C@H]2[C@H](CS[C@H]2CCCCC(=O)*)N1

Target: His-tagged CNA
Experiment: SPR

Biotin-AAAMAGFPPEITVTPPTP [CABIN1-L-1]
Kd: 512 nM
